Data reported in patent publication US20130251703A1 (Novartis, published 2013).

Columns and labels:
[1] = molecular target: T1, human HER3 endogenously expressed on human cancer cells (SK-Br-3, BT-474, MCF7) (human, UniProt P21860 20-1342); assay: cell-based or functional assay
[2] = molecular target: T1, human HER3 endogenously expressed on …; assay: cell-based or functional assay; remark: listed apart in the source
[3] = molecular target: T2, Hu HER3: CD33-[Human HER3, residues 20-640]-TAG (human, UniProt P21860 20-640); assay: solution equilibrium titration (SET), IgG, ECL read-out
T2 construct: also called hu HER3-Tag; HER3-Tag; not shown: C-terminal TAG (e.g. FLAG TAG)

[4] = molecular target: T3, Cyno HER3: CD33-[Cyno HER3, residues 20-643]-TAG (cynomolgus monkey, UniProt G7PIG5 20-643); assay: as above
T3 construct: also called cy HER3-Tag; not shown: C-terminal TAG (e.g. FLAG TAG)

[5] = molecular target: T4, Mu HER3: CD33-[Murine HER3, residues 20-643]-TAG (mouse, UniProt Q61526 20-643); assay: as above
T4 construct: also called mu HER3-Tag; not shown: C-terminal TAG (e.g. FLAG TAG)

[6] = molecular target: T5, Rat HER3: CD33-[Rat HER3, residues 20-643]-TAG (rat, UniProt Q62799 20-643); assay: as above
T5 construct: also called ra HER3-Tag; not shown: C-terminal TAG (e.g. FLAG TAG)

[7] = molecular target: T1, human HER3 endogenously expressed on …; assay: FACS titration of IgG on SK-Br-3 cells (endogenous HER3)
Description: The binding of antibodies to endogenous human antigen expressed on human cancer cells was accessed by FACS. In order to determine antibody EC₅₀ values SK-Br-3 cells were harvested with accutase and diluted to 1×10⁶ cells/mL in FACS buffer (PBS/3% FBS/0.2% NaN₃). 1×10⁵ cells/well were added to each well of a 96-well plate (Nunc) and centrifuged at 210 g for 5 minutes at 4° C. before removing the supernatant. Serial dilutions of test antibodies (diluted in 1:4 dilution steps with FACS buffer) were added to the pelleted cells and incubated for 1 hour on ice. The cells were washed and pelleted three times with […] FACS buffer. PE conjugated goat anti-human IgG (Jackson ImmunoResearch) diluted 1/200 with FACS buffer were added to the cells and incubated on ice for 1 hour. Additional washing steps were performed three times with 100 μL FACS buffer followed by centrifugation steps at 210 g for 5 minutes at 4° C. Finally, cells were resuspended in 200 μL FACS buffer and fluorescence values were measured with a FACSArray (BD Biosciences). The amount of cell surface bound anti-HER3 antibody was assessed by measuring the mean channel fluorescence.

[8] = molecular target: T1, human HER3 endogenously expressed on …; assay: cell-based or functional assay; remark: listed apart in the source

Binder	MCF7 pHER3 % inhibition [1] [%]	MCF7 pHER3 IC50 [1] [pM]	SK-Br-3 pHER3 % inhibition [1] [%]	SK-Br-3 pHER3 IC50 [1] [pM]	SK-Br-3 proliferation % inhibition [2] [%]	SK-Br-3 proliferation IC50 [2] [pM]	Kd [3] [pM]	Kd [4] [pM]	Kd [5] [pM]	Kd [6] [pM]	EC50 [7] [pM]	BT474 pHER3 % inhibition [1] [%]	BT474 pHER3 IC50 [1] [pM]	MCF7 proliferation % inhibition [2] [%]	MCF7 proliferation IC50 [2] [pM]	BT-474 pAkt % inhibition [8] [%]	BT-474 pAkt IC50 [8] [pM]	SK-Br-3 pAkt % inhibition [8] [%]	SK-Br-3 pAkt IC50 [8] [pM]	other results
MOR14538 (antibody, human IgG1, lambda, V domains shown, Tested as IgG) VH: QVQLVQSGAEVKKPGASVKVSCKASGYTFTSYDIHWVRQAPGQGLEWMGRIDPYSGNTNYAQKFQGRVTMTRDTSISTAYMELSRLRSDDTAVYYCARGSFYTRDSYFDVWGQGTLVTVSS VL: QSALTQPASVSGSPGQSITISCTGTSSDVGTYNQVSWYQQHPGKAPKLMIYGVSKRPSGVSNRFSGSKSGNTASLTISGLQAEDEADYYCASADHSYHTVFGGGTKLTVLG	83	615	71	263	53	81	45	26	23	51	279									
MOR14537 (antibody, human IgG1, lambda, V domains shown, Tested as IgG) VH: QVQLVQSGAEVKKPGASVKVSCKASGYTFTSYDIHWVRQAPGQGLEWMGRIDPYSGNTNYAQKFQGRVTMTRDTSISTAYMELSRLRSDDTAVYYCARGSFYTRDSYFDVWGQGTLVTVSS VL: QSALTQPASVSGSPGQSITISCTGTSSDVGTYNQVSWYQQHPGKAPKLMIYGVSKRPSGVSNRFSGSKSGNTASLTISGLQAEDEADYYCSSATQKPDVTVFGGGTKLTVLG	73	200	69	97	48	47	210	140	220	285	179									
MOR12605 (antibody, human IgG1, kappa, V domains shown, Tested as IgG) VH: QVQLVQSGAEVKKPGSSVKVSCKASGGTFSSYAISWVRQAPGQGLEWMGLIIPRYGKARYAQKFQGRVTITADESTSTAYMELSSLRSEDTAVYYCARNWPYYYMDFWGQGTLVTVSS VL: DIVLTQSPATLSLSPGERATLSCRASQNIVFNLAWYQQKPGQAPRLLIYDASNRATGVPARFSGSGSGTDFTLTISSLEPEDFAVYYCQQFRRKSNTFGQGTKVEIKR	89	318	73	7	29	0.01	1800	2900	2300	9600		64	1490	45	28	67	173	84	140	MCF7 pAkt % inhibition [8]: 76%; MCF7 pAkt IC50 [8]: 533 pM
MOR12606 (antibody, human IgG1, kappa, V domains shown, Tested as IgG) VH: QVQLVQSGAEVKKPGSSVKVSCKASGGTFSSYAISWVRQAPGQGLEWMGLIIPRYGKARYAQKFQGRVTITADESTSTAYMELSSLRSEDTAVYYCARNWPYYYMDFWGQGTLVTVSS VL: DIVLTQSPATLSLSPGERATLSCRASQNIVFNLAWYQQKPGQAPRLLIYDASNRATGVPARFSGSGSGTDFTLTISSLEPEDFAVYYCQQTKSKPSPTFGQGTKVEIKR	87	34	75	25	36		1500	2600	1400	8100		73	108	39	52	77	91	85	8	BT-474 proliferation % inhibition [2]: 40%; BT-474 proliferation IC50 [2]: 127 pM
MOR14534 (antibody, human IgG1, kappa, V domains shown, Tested as IgG) VH: QVQLVQSGAEVKKPGSSVKVSCKASGGTFSSYAISWVRQAPGQGLEWMGLIIPRYGKARYAQKFQGRVTITADESTSTAYMELSSLRSEDTAVYYCARNWPYYYMDFWGQGTLVTVSS VL: EIVLTQSPATLSLSPGERATLSCRASQNIVFNLAWYQQKPGQAPRLLIYDASNRATGIPARFSGSGSGTDFTLTISSLEPEDFAVYYCQQTKNRPPTFGQGTKVEIKR	71	16	63	10	40	27	2150	6350	4000	30000	28									
MOR14533 (antibody, human IgG1, kappa, V domains shown, Tested as IgG) VH: QVQLVQSGAEVKKPGSSVKVSCKASGGTFSSYAISWVRQAPGQGLEWMGLIIPRYGKARYAQKFQGRVTITADESTSTAYMELSSLRSEDTAVYYCARNWPYYYMDFWGQGTLVTVSS VL: EIVLTQSPATLSLSPGERATLSCRASQNIVFNLAWYQQKPGQAPRLLIYDASNRATGIPARFSGSGSGTDFTLTISSLEPEDFAVYYCQQTKSKPSPTFGQGTKVEIKR	67	50	68	20	46	26	640	2950	2000	9650	42									
